For test [1], the target named is T1, 人PD-1 (on CHOZn/PD-1 stably transfected cells) (human, UniProt Q15116 25-288).
T1 construct: whole, on cells; also called hPD-1; GS-J2/PD-1
The test can be described thus: flow cytometry; binding to CHOZn/PD-1 cells, anti Human IgG-FITC detection. (Flow cytometry measures light scatter and fluorescence of single cells or particles in a stream.)

Test [2] has as its target T1, 人PD-1 (on CHOZn/PD-1 stably transfected …). The test can be described thus: flow cytometry; competition with 50ug/ml hPD-L1-Biotin on CHOZn/PD-1 cells.

T1 sequence (Q15116 25-288): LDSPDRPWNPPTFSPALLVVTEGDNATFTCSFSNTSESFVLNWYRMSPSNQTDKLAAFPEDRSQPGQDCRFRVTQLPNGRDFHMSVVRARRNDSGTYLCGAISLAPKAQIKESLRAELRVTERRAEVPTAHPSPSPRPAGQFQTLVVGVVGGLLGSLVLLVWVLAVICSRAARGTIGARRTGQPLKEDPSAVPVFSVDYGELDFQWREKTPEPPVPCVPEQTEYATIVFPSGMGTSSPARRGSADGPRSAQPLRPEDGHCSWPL

B1: PD-1Nb-Fc融合蛋白 (Fc fusion)
chain: QVQLQESGGGSVQAGGSLRLSCAASGYTYSSYYMGWFRQAPGKEREGVAAIDRDGRTSYADSVKGRFTISRDNAKNTLYLQMNSLKPEDTAMYTCAAVLVLSGYYSDYGLVPPPFEYNYWGQGTQVTVSS
notes: also called PD-1纳米抗体; not shown: IgG4 Fc supplied by the pFUSE-IgG4 vector (Invivogen)
Broadly, the EC50 is the concentration giving half of the maximal effect. Higher therefore signals weaker potency. Broadly, the IC50 is the midpoint of a concentration-inhibition curve. In test [1], B1 had an EC50 of 1.06 µg/mL. Besides, the half-maximal inhibitory concentration (IC50) in test [2] was found to be 1.3 µg/mL.

(Values after patent CN112442122A (SHANGHAI NOVAMAB BIOPHARMACEUTICALS CO LTD, dated 2021).)
